First the molecules themselves.
B1: PR003867 (bispecific antibody, human IgG1, lambda, L234A L235A)
light: QAVVTQEPSLTVSPGGTVTLTCRSSTGAVTTSNYANWVQQKPGQAPRGLIGGTNKRAPWTPARFSGSLLGDKAALTLLGAQPEDEAEYFCALWYSNLWVFGGGTKLTVLGQPKAAPSVTLFPPSSEELQANKATLVCLISDFYPGAVTVAWKADSSPVKAGVETTTPSKQSNNKYAASSYLSLTPEQWKSHRSYSCQVTHEGSTVEKTVAPTECS
heavy: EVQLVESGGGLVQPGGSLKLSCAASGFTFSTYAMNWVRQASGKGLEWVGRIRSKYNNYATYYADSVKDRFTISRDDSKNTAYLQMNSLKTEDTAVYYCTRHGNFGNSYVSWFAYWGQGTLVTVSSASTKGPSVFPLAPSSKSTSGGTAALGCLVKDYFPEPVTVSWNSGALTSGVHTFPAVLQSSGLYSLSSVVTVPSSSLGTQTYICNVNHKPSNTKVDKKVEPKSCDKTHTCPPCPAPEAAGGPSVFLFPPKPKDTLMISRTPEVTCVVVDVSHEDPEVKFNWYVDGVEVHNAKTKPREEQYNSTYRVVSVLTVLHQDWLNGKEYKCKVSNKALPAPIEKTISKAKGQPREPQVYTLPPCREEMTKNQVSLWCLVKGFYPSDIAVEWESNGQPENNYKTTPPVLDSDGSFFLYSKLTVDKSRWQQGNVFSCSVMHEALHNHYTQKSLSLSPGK
chain: EVQLVETGGGLIQPGGSLRLSCAASGFTVSDNYMTWVRQAPGKGLEWVSVIFSGGKTYYADSVKGRFTISRDNAKNTLYLQMNSLRAEDTALYYCARRNYDDTRGTDVFDIWGQGTMVTVSSASEPKSSDKTHTCPPCPAPEAAGGPSVFLFPPKPKDTLMISRTPEVTCVVVDVSHEDPEVKFNWYVDGVEVHNAKTKPREEQYNSTYRVVSVLTVLHQDWLNGKEYKCKVSNKALPAPIEKTISKAKGQPREPQVCTLPPSREEMTKNQVSLSCAVKGFYPSDIAVEWESNGQPENNYKTTPPVLDSDGSFFLVSKLTVDKSRWQQGNVFSCSVMHEALHNHYTQKSLSLSPGK
notes: BCMAxCD3, Fab-Fc-VH (structure 11); CD3 Fab of PR003886, BCMA VH of PR004559; IgG1 knob/hole, LALA
B2: PR003871 (bispecific antibody, human IgG1, lambda, L234A L235A)
light: QAVVTQEPSLTVSPGGTVTLTCRSSTGAVTTSNYANWVQQKPGQAPRGLIGGTNKRAPWTPARFSGSLLGDKAALTLLGAQPEDEAEYFCALWYSNLWVFGGGTKLTVLGQPKAAPSVTLFPPSSEELQANKATLVCLISDFYPGAVTVAWKADSSPVKAGVETTTPSKQSNNKYAASSYLSLTPEQWKSHRSYSCQVTHEGSTVEKTVAPTECS
heavy: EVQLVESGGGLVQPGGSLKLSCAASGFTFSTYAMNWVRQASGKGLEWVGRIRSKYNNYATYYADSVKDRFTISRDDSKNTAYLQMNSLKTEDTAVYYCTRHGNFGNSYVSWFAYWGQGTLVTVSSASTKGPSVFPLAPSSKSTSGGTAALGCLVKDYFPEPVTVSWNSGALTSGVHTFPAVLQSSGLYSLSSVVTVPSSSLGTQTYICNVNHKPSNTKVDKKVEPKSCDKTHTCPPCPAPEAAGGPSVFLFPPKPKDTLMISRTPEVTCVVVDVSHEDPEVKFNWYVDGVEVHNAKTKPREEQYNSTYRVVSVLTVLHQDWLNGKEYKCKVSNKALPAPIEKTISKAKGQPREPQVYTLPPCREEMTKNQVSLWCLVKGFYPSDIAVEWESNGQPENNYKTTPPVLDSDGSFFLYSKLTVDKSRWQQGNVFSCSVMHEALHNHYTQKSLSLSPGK
chain: EVQLVETGGGLIQPGGSLRLSCAASGFTVSDSYMTWVRQAPGKGLEWVSVIFSGGRTYYSDSVKGRFTISRDNAKNTLYLQMNSLRAEDTALYYCARRNYDDTRGTDVFDIWGQGTMVTVSSASEPKSSDKTHTCPPCPAPEAAGGPSVFLFPPKPKDTLMISRTPEVTCVVVDVSHEDPEVKFNWYVDGVEVHNAKTKPREEQYNSTYRVVSVLTVLHQDWLNGKEYKCKVSNKALPAPIEKTISKAKGQPREPQVCTLPPSREEMTKNQVSLSCAVKGFYPSDIAVEWESNGQPENNYKTTPPVLDSDGSFFLVSKLTVDKSRWQQGNVFSCSVMHEALHNHYTQKSLSLSPGK
notes: BCMAxCD3, Fab-Fc-VH (structure 11); CD3 Fab of PR003886, BCMA VH of PR004566; IgG1 knob/hole, LALA
B3: PR003878 (bispecific antibody, human IgG1, lambda, L234A L235A)
light: QAVVTQEPSLTVSPGGTVTLTCRSSTGAVTTSNYANWVQQKPGQAPRGLIGGTNKRAPWTPARFSGSLLGDKAALTLLGAQPEDEAEYFCALWYSNLWVFGGGTKLTVLGQPKAAPSVTLFPPSSEELQANKATLVCLISDFYPGAVTVAWKADSSPVKAGVETTTPSKQSNNKYAASSYLSLTPEQWKSHRSYSCQVTHEGSTVEKTVAPTECS
heavy: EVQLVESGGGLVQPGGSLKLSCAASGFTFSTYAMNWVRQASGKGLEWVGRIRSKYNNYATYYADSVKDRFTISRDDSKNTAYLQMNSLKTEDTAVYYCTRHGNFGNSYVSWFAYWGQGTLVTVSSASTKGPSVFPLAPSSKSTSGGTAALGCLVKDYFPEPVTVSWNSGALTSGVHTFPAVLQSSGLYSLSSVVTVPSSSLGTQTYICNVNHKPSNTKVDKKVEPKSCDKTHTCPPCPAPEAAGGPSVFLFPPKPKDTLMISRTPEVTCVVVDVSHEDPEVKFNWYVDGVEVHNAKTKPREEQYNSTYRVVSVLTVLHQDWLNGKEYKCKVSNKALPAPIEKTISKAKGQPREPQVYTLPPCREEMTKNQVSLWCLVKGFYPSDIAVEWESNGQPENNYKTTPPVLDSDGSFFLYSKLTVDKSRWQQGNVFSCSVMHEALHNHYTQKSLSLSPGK
chain: EVQLVETGGGLIQPGGSLRLSCAASGFTVSDSYMTWVRQAPGKGLEWVSVIFSGGKTYYADSVKGRFTISRDNAKNTLYLQMNSLRAEDTALYYCARRNYDDTRGTDVFDIWGQGTMVTVSSASEPKSSDKTHTCPPCPAPEAAGGPSVFLFPPKPKDTLMISRTPEVTCVVVDVSHEDPEVKFNWYVDGVEVHNAKTKPREEQYNSTYRVVSVLTVLHQDWLNGKEYKCKVSNKALPAPIEKTISKAKGQPREPQVCTLPPSREEMTKNQVSLSCAVKGFYPSDIAVEWESNGQPENNYKTTPPVLDSDGSFFLVSKLTVDKSRWQQGNVFSCSVMHEALHNHYTQKSLSLSPGK
notes: BCMAxCD3, Fab-Fc-VH (structure 11); CD3 Fab of PR003886, BCMA VH of PR004573; IgG1 knob/hole, LALA
B4: PR003877 (bispecific antibody, human IgG1, lambda, L234A L235A)
light: QAVVTQEPSLTVSPGGTVTLTCRSSTGAVTTSNYANWVQQKPGQAPRGLIGGTNKRAPWTPARFSGSLLGDKAALTLLGAQPEDEAEYFCALWYSNLWVFGGGTKLTVLGQPKAAPSVTLFPPSSEELQANKATLVCLISDFYPGAVTVAWKADSSPVKAGVETTTPSKQSNNKYAASSYLSLTPEQWKSHRSYSCQVTHEGSTVEKTVAPTECS
heavy: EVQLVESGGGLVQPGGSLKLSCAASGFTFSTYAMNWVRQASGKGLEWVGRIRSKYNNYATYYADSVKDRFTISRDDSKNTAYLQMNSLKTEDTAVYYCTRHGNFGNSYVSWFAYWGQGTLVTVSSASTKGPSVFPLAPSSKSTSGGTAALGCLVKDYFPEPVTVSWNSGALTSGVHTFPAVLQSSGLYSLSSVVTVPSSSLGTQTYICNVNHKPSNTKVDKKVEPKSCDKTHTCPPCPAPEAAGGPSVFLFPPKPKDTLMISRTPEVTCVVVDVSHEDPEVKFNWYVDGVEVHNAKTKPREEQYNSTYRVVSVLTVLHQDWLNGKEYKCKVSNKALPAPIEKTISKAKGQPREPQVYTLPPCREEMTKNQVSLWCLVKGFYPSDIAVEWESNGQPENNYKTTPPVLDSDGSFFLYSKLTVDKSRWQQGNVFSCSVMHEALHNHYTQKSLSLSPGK
chain: EVQLVETGGGLIQPGGSLRLSCAASGFTVSDSYMTWVRQAPGKGLEWVSVIFSGGKTYVADSVKGRFTISRDNAKNTLYLQMNSLRAEDTALYYCARRNYDDTRGTDVFDIWGQGTMVTVSSASEPKSSDKTHTCPPCPAPEAAGGPSVFLFPPKPKDTLMISRTPEVTCVVVDVSHEDPEVKFNWYVDGVEVHNAKTKPREEQYNSTYRVVSVLTVLHQDWLNGKEYKCKVSNKALPAPIEKTISKAKGQPREPQVCTLPPSREEMTKNQVSLSCAVKGFYPSDIAVEWESNGQPENNYKTTPPVLDSDGSFFLVSKLTVDKSRWQQGNVFSCSVMHEALHNHYTQKSLSLSPGK
notes: BCMAxCD3, Fab-Fc-VH (structure 11); CD3 Fab of PR003886, BCMA VH of PR004572; IgG1 knob/hole, LALA
B5: PR003873 (bispecific antibody, human IgG1, lambda, L234A L235A)
light: QAVVTQEPSLTVSPGGTVTLTCRSSTGAVTTSNYANWVQQKPGQAPRGLIGGTNKRAPWTPARFSGSLLGDKAALTLLGAQPEDEAEYFCALWYSNLWVFGGGTKLTVLGQPKAAPSVTLFPPSSEELQANKATLVCLISDFYPGAVTVAWKADSSPVKAGVETTTPSKQSNNKYAASSYLSLTPEQWKSHRSYSCQVTHEGSTVEKTVAPTECS
heavy: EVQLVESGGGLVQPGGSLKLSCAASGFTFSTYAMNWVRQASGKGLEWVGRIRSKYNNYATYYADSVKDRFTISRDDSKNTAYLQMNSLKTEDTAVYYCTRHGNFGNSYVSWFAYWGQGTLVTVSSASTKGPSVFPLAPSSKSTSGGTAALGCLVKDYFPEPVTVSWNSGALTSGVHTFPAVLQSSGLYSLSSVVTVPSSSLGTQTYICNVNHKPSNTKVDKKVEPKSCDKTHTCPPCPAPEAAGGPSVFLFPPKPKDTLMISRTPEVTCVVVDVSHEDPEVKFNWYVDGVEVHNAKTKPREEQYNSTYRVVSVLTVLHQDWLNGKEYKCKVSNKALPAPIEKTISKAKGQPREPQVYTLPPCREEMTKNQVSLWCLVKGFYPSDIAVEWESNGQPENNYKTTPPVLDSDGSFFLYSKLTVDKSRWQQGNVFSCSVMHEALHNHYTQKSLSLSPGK
chain: EVQLVETGGGLIQPGGSLRLSCAASGFTVSDAYMTWVRQAPGKGLEWVSVIFSGGRTYVADSVKGRFTISRDNAKNTLYLQMNSLRAEDTALYYCARRNYDDTRGTDVFDIWGQGTMVTVSSASEPKSSDKTHTCPPCPAPEAAGGPSVFLFPPKPKDTLMISRTPEVTCVVVDVSHEDPEVKFNWYVDGVEVHNAKTKPREEQYNSTYRVVSVLTVLHQDWLNGKEYKCKVSNKALPAPIEKTISKAKGQPREPQVCTLPPSREEMTKNQVSLSCAVKGFYPSDIAVEWESNGQPENNYKTTPPVLDSDGSFFLVSKLTVDKSRWQQGNVFSCSVMHEALHNHYTQKSLSLSPGK
notes: BCMAxCD3, Fab-Fc-VH (structure 11); CD3 Fab of PR003886, BCMA VH of PR004568; IgG1 knob/hole, LALA
B6: PR003881 (bispecific antibody, human IgG1, lambda, L234A L235A)
light: QAVVTQEPSLTVSPGGTVTLTCRSSTGAVTTSNYANWVQQKPGQAPRGLIGGTNKRAPWTPARFSGSLLGDKAALTLLGAQPEDEAEYFCALWYSNLWVFGGGTKLTVLGQPKAAPSVTLFPPSSEELQANKATLVCLISDFYPGAVTVAWKADSSPVKAGVETTTPSKQSNNKYAASSYLSLTPEQWKSHRSYSCQVTHEGSTVEKTVAPTECS
heavy: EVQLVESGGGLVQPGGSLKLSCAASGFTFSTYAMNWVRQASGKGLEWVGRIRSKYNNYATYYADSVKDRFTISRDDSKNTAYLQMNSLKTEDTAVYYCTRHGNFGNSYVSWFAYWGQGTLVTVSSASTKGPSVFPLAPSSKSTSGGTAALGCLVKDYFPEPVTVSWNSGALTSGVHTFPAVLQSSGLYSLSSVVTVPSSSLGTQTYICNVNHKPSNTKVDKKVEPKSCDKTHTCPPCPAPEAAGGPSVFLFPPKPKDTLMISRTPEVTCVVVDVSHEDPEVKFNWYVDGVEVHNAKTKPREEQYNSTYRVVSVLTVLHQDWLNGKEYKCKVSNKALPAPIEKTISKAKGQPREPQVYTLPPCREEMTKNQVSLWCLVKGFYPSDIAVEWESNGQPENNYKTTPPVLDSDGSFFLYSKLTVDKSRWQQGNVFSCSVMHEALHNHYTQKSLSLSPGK
chain: EVQLVETGGGLIQPGGSLRLSCAASGFTVSDSYMTWVRQAPGKGLEWVSVIFSGGNTYYADSVKGRFTISRDNAKNTLYLQMNSLRAEDTALYYCARRNYDQTLGTDVFDIWGQGTMVTVSSASEPKSSDKTHTCPPCPAPEAAGGPSVFLFPPKPKDTLMISRTPEVTCVVVDVSHEDPEVKFNWYVDGVEVHNAKTKPREEQYNSTYRVVSVLTVLHQDWLNGKEYKCKVSNKALPAPIEKTISKAKGQPREPQVCTLPPSREEMTKNQVSLSCAVKGFYPSDIAVEWESNGQPENNYKTTPPVLDSDGSFFLVSKLTVDKSRWQQGNVFSCSVMHEALHNHYTQKSLSLSPGK
notes: BCMAxCD3, Fab-Fc-VH (structure 11); CD3 Fab of PR003886, BCMA VH of PR004561; IgG1 knob/hole, LALA
B7: PR003875 (bispecific antibody, human IgG1, lambda, L234A L235A)
light: QAVVTQEPSLTVSPGGTVTLTCRSSTGAVTTSNYANWVQQKPGQAPRGLIGGTNKRAPWTPARFSGSLLGDKAALTLLGAQPEDEAEYFCALWYSNLWVFGGGTKLTVLGQPKAAPSVTLFPPSSEELQANKATLVCLISDFYPGAVTVAWKADSSPVKAGVETTTPSKQSNNKYAASSYLSLTPEQWKSHRSYSCQVTHEGSTVEKTVAPTECS
heavy: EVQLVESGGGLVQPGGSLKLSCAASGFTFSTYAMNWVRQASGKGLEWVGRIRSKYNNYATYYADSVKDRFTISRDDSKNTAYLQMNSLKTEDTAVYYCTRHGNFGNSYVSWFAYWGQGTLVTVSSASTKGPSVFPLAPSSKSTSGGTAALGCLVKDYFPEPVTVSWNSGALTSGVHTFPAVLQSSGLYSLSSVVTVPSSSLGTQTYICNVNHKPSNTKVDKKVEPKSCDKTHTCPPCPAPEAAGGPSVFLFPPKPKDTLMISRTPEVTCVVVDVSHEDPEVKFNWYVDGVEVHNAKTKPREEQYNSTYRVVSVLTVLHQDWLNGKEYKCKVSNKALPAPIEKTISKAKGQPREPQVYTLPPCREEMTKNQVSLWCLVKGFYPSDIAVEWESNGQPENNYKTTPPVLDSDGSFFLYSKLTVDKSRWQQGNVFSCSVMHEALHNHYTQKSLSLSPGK
chain: EVQLVETGGGLIQPGGSLRLSCAASGFTVSDAYMTWVRQAPGKGLEWVSVIFSGGRTYYADSVKGRFTISRDNAKNTLYLQMNSLRAEDTALYYCARRNYDQTRGTDVFDIWGQGTMVTVSSASEPKSSDKTHTCPPCPAPEAAGGPSVFLFPPKPKDTLMISRTPEVTCVVVDVSHEDPEVKFNWYVDGVEVHNAKTKPREEQYNSTYRVVSVLTVLHQDWLNGKEYKCKVSNKALPAPIEKTISKAKGQPREPQVCTLPPSREEMTKNQVSLSCAVKGFYPSDIAVEWESNGQPENNYKTTPPVLDSDGSFFLVSKLTVDKSRWQQGNVFSCSVMHEALHNHYTQKSLSLSPGK
notes: BCMAxCD3, Fab-Fc-VH (structure 11); CD3 Fab of PR003886, BCMA VH of PR004570; IgG1 knob/hole, LALA

The assay deals with T1, human BCMA (human, UniProt Q02223 1-184).
T1 construct: whole, on cells; also called hBCMA; TNFRSF17
T1 sequence (looked up): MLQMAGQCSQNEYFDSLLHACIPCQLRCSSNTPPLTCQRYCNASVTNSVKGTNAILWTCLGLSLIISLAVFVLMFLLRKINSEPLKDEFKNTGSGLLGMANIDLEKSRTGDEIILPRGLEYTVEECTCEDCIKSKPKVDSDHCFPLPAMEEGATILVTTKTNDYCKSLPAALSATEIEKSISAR
In words: FACS on NCI-H929 cells.
On to B1, for which the EC50 – broadly, the concentration needed to bring the measured effect to its halfway point – came to 4.6 nM and the “Maximum MFI” value came out at 8590.

Turning to B2, the EC50 came out at 2 nM and the “Maximum MFI” value was determined as 10600.

For the molecule B3, the EC50 came out at 1.5 nM and the “Maximum MFI” value was determined as 9240.

Consider B4, for which the EC50 turned out to be 1.7 nM and the “Maximum MFI” value came out at 11100.

For the molecule B5, the EC50 came out at 1.3 nM and the “Maximum MFI” value is 10200.

With B6, the response was half-maximal at 2.6 nM (EC50) and the “Maximum MFI” value was 10300.

On to B7, for which the response was half-maximal at 1.2 nM (EC50) and the “Maximum MFI” value is 9840.
